Source: article PMC7563477, “N-Terminal Segment of TvCyP2 Cyclophilin from Trichomonas vaginalis Is Involved in Self-Association, Membrane Interaction, and Subcellular Localization” (Biomolecules, 2020)

Target: T1, T. vaginalis cyclophilin 2 (TvCyP2), recombinant with C-terminal His-tag (Trichomonas vaginalis, UniProt A2DLL4 1-186)
T1 construct: TvCyP2 cyclophilin of Trichomonas vaginalis, with its N-terminal segment; secondary structure is described up to residue 184; theoretical molecular weight 20.947 kDa; 15N-labelled for the NMR experiments; Cloned into pET-29b by NdeI and XhoI; also called TvCyP2_apo1; TvCyP2_apo2; source: E. coli BL21(DE3), purified (Q-sepharose flow-through, Ni-NTA; SEC superdex-75 for crystallization and …)
Assay: NMR titration; 2D 1H-15N HSQC of the 15N-labelled protein without and with unlabelled TvCyP2(3-18) peptide (molar ratio 1:5); 800 MHz, 310 K; 20 mM NaH2PO4, 50 mM NaCl, pH 6.0, 10% D2O
Details: both partners purified

B1: TvCyP2_(3–18) peptide (peptide)
peptide: AFFATRVISAPKVTKK
notes: residues 3-18 of TvCyP2 of Trichomonas vaginalis (N-terminal segment); source: synthetic peptide, HPLC-grade, bought: Yao-Hong Biotechnology
binding result: binds
